In patent US20240108653A1 (UNIVERSITY OF UTAH RESEARCH FOUNDATION, published 2024):

T1: Leucine-Rich Repeat and Ig Domain Protein 1 (LINGO1) (UniProt Q96FE5 42-620, limits assumed)
T1 construct: whole, on cells; It is endogenous on Ewing sarcoma cell lines and transduced in K562 cells
T1 sequence (looked up): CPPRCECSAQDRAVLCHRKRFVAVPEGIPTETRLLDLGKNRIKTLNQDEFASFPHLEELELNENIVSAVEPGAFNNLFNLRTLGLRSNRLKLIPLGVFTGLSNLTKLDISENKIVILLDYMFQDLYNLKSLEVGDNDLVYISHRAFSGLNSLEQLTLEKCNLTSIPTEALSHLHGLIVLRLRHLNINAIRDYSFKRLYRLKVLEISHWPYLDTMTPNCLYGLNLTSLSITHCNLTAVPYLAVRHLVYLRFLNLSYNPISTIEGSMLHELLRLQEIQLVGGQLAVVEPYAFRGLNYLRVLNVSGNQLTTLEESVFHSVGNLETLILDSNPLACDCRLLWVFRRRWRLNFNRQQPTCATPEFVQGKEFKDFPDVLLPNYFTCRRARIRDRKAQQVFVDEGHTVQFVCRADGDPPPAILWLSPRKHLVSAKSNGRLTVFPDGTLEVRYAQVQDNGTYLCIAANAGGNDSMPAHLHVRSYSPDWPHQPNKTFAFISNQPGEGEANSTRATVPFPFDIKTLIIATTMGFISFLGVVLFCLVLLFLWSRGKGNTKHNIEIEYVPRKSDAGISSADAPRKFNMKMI

B1: Li81 scFv, VLVH orientation (scFv)
scFv: DIQMTQSPATLSLSPGERATLSCRASQSVSSYLAWYQQKPGQAPRLLIYDASNRATGIPARFSGSGSGTDFTLTISSLEPEDFAVYYCQQRSNWPMYTFGQGTKLEIKGGGGSGGGGSGGGGSEVQLLESGGGLVQPGGSLRLSCAASGFTFSAYEMKWVRQAPGKGLEWVSVIGPSGGFTFYADSVKGRFTISRDNSKNTLYLQMNSLRAEDTAVYYCATEGDNDAFDIWGQGTTVTVSS
notes: It was detected with an anti-FLAG/APC antibody, so it carried a FLAG tag; also called Li81 VLVH; LINGO1-specific scFv
B2: Li81 scFv, VHVL orientation (scFv)
scFv: EVQLLESGGGLVQPGGSLRLSCAASGFTFSAYEMKWVRQAPGKGLEWVSVIGPSGGFTFYADSVKGRFTISRDNSKNTLYLQMNSLRAEDTAVYYCATEGDNDAFDIWGQGTTVTVSSGGGGSGGGGSGGGGSDIQMTQSPATLSLSPGERATLSCRASQSVSSYLAWYQQKPGQAPRLLIYDASNRATGIPARFSGSGSGTDFTLTISSLEPEDFAVYYCQQRSNWPMYTFGQGTKLEIK
notes: It was detected with an anti-FLAG/APC antibody, so it carried a FLAG tag; also called Li81 VHVL; LINGO1-specific scFv
B3: Li62 scFv, VHVL orientation (scFv)
scFv: EVQLLESGGGLVQPGGSLRLSCAASGFTFSIYPMFWVRQAPGKGLEWVSWIGPSGGITKYADSVKGRFTISRDNSKNTLYLQMNSLRAEDTATYYCAREGHNDWYFDLWGRGTLVTVSSGGGGSGGGGSGGGGSDIQMTQSPSFLSASVGDSVAITCRASQDISRYLAWYQQRPGKAPKLLIYDASNLQTGVPSRFSGSGSGTDFTFTITSLQPEDFGTYYCQQYDTLHPSFGPGTTVDIK
notes: It was detected with an anti-FLAG/APC antibody, so it carried a FLAG tag; also called Li62 VHVL; LINGO1-specific scFv
B4: Li62 scFv, VLVH orientation (scFv)
scFv: DIQMTQSPSFLSASVGDSVAITCRASQDISRYLAWYQQRPGKAPKLLIYDASNLQTGVPSRFSGSGSGTDFTFTITSLQPEDFGTYYCQQYDTLHPSFGPGTTVDIKGGGGSGGGGSGGGGSEVQLLESGGGLVQPGGSLRLSCAASGFTFSIYPMFWVRQAPGKGLEWVSWIGPSGGITKYADSVKGRFTISRDNSKNTLYLQMNSLRAEDTATYYCAREGHNDWYFDLWGRGTLVTVSS
notes: It was detected with an anti-FLAG/APC antibody, so it carried a FLAG tag; also called Li62 VLVH; LINGO1-specific scFv

biological target: T1, Leucine-Rich Repeat and Ig Domain …; experiment: flow cytometry on Ewing sarcoma cell lines; scFv detected with anti-FLAG/APC secondary antibody
Method: FIGS. 4A-4I show LINGO1-specific CAR T cells show cytotoxic activity against Ewing sarcoma. (FIG. 4A) mRNA expression of LINGO1 and GAPDH housekeeping gene in Ewing sarcoma cell lines and healthy brain tissue as determined by RT-PCR. (FIG. 4B) Schema of CAR construct and four LINGO1-specific scFv domains (FIG. 4C) Binding of LINGO1-specific scFvs at 5 µg/ml and secondary staining with an anti-FLAG/APC antibody (clone: L5). against Ewing sarcoma cell lines as determined by flow cytometry. Secondary antibody alone is shown in grey. (FIG. 4D) LINGO1 CAR surface expression on primary T cells after staining with an anti-HA/APC antibody as determined by flow cytometry. (FIG. 4E) IFNγ secretion as determined by ELISA and (FIG. 4F) anti-tumor activity as determined by luminescence-based cytotoxicity assay of CAR T cells expressing LINGO1 CAR variants after 24 h co-culture with A673 cells at an effector-target ratio of 1:1. (FIG. 4G) Expansion of LINGO1 CAR T cells based on Li81 VLVH and T cels expressing a CAR without a binding domain (ΔscFv). (FIG. 4H) IFNγ and IL2 production as determined by ELISA and (FIG. 4I) anti-tumor activity as determined by luminescence-based cytotoxicity assay by LINGO1 CAR T cells after 24 h co-culture with Ewing sarcoma cell lines at different effector-target ratios. Data represent mean±SD from 3 technical replicates. Statistical significance was determined by two-sided Student's t test.
CAR T cells targeting LINGO1 for the treatment of Ewing sarcoma were developed.

Binding result, binds:
B1
B2
B3
B4
